In patent US10766952B2, “Methods for reducing migraine frequency in a subject in need thereof” (Beth Israel Deaconess Medical Center, Inc., priority 2017, dated 2020) one finds α-human koff and α-rat koff data, which are given here for 18 molecules.

The chains are these.
B1: M28: G1 variant: L1 R28N,T30D; H2 E54R,A57N; HC-FW3 L99T,A100V (antibody, V domains shown)
VH: EVQLVESGGGLVQPGGSLRLSCAASGFTFSNYWISWVRQAPGKGLEWVAEIRSRSDNSATHYAEAVKGRFTISRDNAKNSLYLQMNSLRAEDTAVYYCTVYFDYGLAIQNYWGQGTLVTVSS
VL: EIVLTQSPATLSLSPGERATLSCKASKNVDTYVSWYQQKPGQAPRLLIYGASNRYLGIPARFSGSGSGTDFTLTISSLEPEDFAVYYCSQSYNYPYTFGQGTKLEIK
B2: M40: G1 variant: L1 R28N; L2 G50A,L56T; H2 E54K,A57L; HC-FW3 L99T,A100V (antibody, V domains shown)
VH: B1 VH with R54K, N57L
VL: B1 VL with D30T, G50A, L56T
B3: M45: G1 variant: L1 R28N; L2 G50A,L56T; H2 E54K,A57N,S58E,E64D; HC-FW3 L99T,A100V (antibody, V domains shown)
VH: B1 VH with R54K, S58E, E64D
VL: B1 VL with D30T, G50A, L56T
B4: M39: G1 variant: L1 R28N; L2 G50A,L56T; H2 A57N,S58Y; HC-FW3 L99T,A100V (antibody, V domains shown)
VH: B1 VH with R54E, S58Y
VL: B1 VL with D30T, G50A, L56T
B5: M34: G1 variant: L1 R28N,T30G; H2 E54K,A57N,S58T; HC-FW3 L99T,A100V (antibody, V domains shown)
VH: B1 VH with R54K, S58T
VL: B1 VL with D30G
B6: M37: G1 variant: L1 R28N,T30S; H2 A57G; HC-FW3 L99T,A100V (antibody, V domains shown)
VH: B1 VH with R54E, N57G
VL: B1 VL with D30S
B7: M38: G1 variant: L1 R28N,T30W; HC-FW3 L99T,A100V (antibody, V domains shown)
VH: B1 VH with R54E, N57A
VL: B1 VL with D30W
B8: M44: G1 variant: L1 R28N; L2 G50A,L56T; H2 E54K,A57N,S58E; HC-FW3 L99T,A100V (antibody, V domains shown)
VH: B1 VH with R54K, S58E
VL: B1 VL with D30T, G50A, L56T
B9: M30: G1 variant: L1 R28N,T30G; H2 E54K,A57E; HC-FW3 L99T,A100V (antibody, V domains shown)
VH: B1 VH with R54K, N57E
VL: B1 VL with D30G
B10: M43: G1 variant: L1 R28N; L2 G50A,L56T; H2 E54K,A57N,S58C; HC-FW3 L99T,A100V (antibody, V domains shown)
VH: B1 VH with R54K, S58C
VL: B1 VL with D30T, G50A, L56T
B11: M31: G1 variant: L1 R28N,T30G; H2 E54K,A57G; HC-FW3 L99T,A100V (antibody, V domains shown)
VH: B1 VH with R54K, N57G
VL: B1 VL with D30G
B12: M41: G1 variant: L1 R28N; L2 G50A,L56T; H2 E54K,A57N,E64D; HC-FW3 L99T,A100V (antibody, V domains shown)
VH: B1 VH with R54K, E64D
VL: B1 VL with D30T, G50A, L56T
B13: M29: G1 variant: L1 R28N,T30G; HC-FW3 L99T,A100V (antibody, V domains shown)
VH: B1 VH with R54E, N57A
VL: B1 VL with D30G
B14: M42: G1 variant: L1 R28N; L2 G50A,L56T; H2 E54K,A57N,H61F; HC-FW3 L99T,A100V (antibody, V domains shown)
VH: B1 VH with R54K, H61F
VL: B1 VL with D30T, G50A, L56T
B15: M32: G1 variant: L1 R28N,T30G; H2 E54K,A57H; HC-FW3 L99T,A100V (antibody, V domains shown)
VH: B1 VH with R54K, N57H
VL: B1 VL with D30G
B16: M33: G1 variant: L1 R28N,T30G; H2 E54K,A57N,S58G; HC-FW3 L99T,A100V (antibody, V domains shown)
VH: B1 VH with R54K, S58G
VL: B1 VL with D30G
B17: M35: G1 variant: L1 R28N,T30G; H2 E54K,A57S; HC-FW3 L99T,A100V (antibody, V domains shown)
VH: B1 VH with R54K, N57S
VL: B1 VL with D30G
B18: M36: G1 variant: L1 R28N,T30R; HC-FW3 L99T,A100V (antibody, V domains shown)
VH: B1 VH with R54E, N57A
VL: B1 VL with D30R

Residue numbers refer to the chain shown, from its start. In names and notes the source's numbering stands.

The target of one experiment is T1, human α-CGRP (Homo sapiens, UniProt P06881).
T1 construct: 1-37 (WT); purchased; host or cells: synthetic peptide
T1 sequence (P06881 83-119 limits assumed): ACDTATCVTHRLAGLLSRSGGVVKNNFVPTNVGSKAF
Nature of the experiment: Biacore affinity of antibody G1 Fab and variants to human α-CGRP. Type of experiment: binding. As to conditions: 37° C., Fab, screening mode unless underlined. An outline of the steps: (§1)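 Fab fragments flowed over N-biotinylated CGRP captured on SA chip in HBS-EP pH 7.4; titration series fit globally to 1:1 Langmuir model, KD = koff/kon. For very slow off-rates, kon from 550 nM–1 nM series with 30 s dissociation, koff from 2-hour dissociation.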
Regarding B1, the α-human koff came to 9.96e-05 s⁻¹.

As to B2, the α-human koff was 0.00128 s⁻¹.

B3 displayed a α-human koff of 0.000211 s⁻¹.

Molecule B4 displayed a α-human koff of 0.000425 s⁻¹.

Take B5: the α-human koff came out at 0.000646 s⁻¹.

In turn, B6 registered a α-human koff of 0.000226 s⁻¹.

B7 showed a α-human koff of 0.000218 s⁻¹.

B8 gave a α-human koff of 0.00021 s⁻¹.

B9: the α-human koff is 0.00059 s⁻¹.

Molecule B10 came in with a α-human koff of 0.000263 s⁻¹.

Consider B11, for which the α-human koff came to 0.000347 s⁻¹.

Take B12: the α-human koff is 0.00021 s⁻¹.

B13: the α-human koff amounted to 0.00038 s⁻¹.

B14 came in with a α-human koff of 0.000417 s⁻¹.

B15 registered a α-human koff of 0.000271 s⁻¹.

Molecule B16 showed a α-human koff of 0.00075 s⁻¹.

B17 registered a α-human koff of 0.000339 s⁻¹.

B18 gave a α-human koff of 0.000239 s⁻¹.

For a further experiment, the target named is T2, rat α-CGRP (Rattus norvegicus, UniProt P01256).
T2 construct: rat α (1-37); host or cells: synthetic peptide
T2 sequence (P01256 83-119 limits assumed): T1 sequence (P06881 83-119 limits assumed) with A1S, D3N, N25D, K35E
Nature of the experiment: Biacore affinity of antibody G1 Fab and variants to rat α-CGRP. Type of experiment: binding. As to conditions: 37° C., Fab, screening mode unless underlined. An outline of the steps:
as §1
In the case of B1, the α-rat koff was 0.00125 s⁻¹.

The molecule B2 yielded a α-rat koff of 0.36 s⁻¹.

In turn, B3 had a α-rat koff of 0.00558 s⁻¹.

B4: the α-rat koff is 0.00995 s⁻¹.

Molecule B5 showed a α-rat koff of 0.00217 s⁻¹.

B6: the α-rat koff turned out to be 0.00145 s⁻¹.

Molecule B7 came in with a α-rat koff of 0.00511 s⁻¹.

For the molecule B8, the α-rat koff came out at 0.00613 s⁻¹.

Molecule B9 had a α-rat koff of 0.00638 s⁻¹.

On to B10, for which the α-rat koff came out at 0.00453 s⁻¹.

In turn, B11 showed a α-rat koff of 0.00361 s⁻¹.

Regarding B12, the α-rat koff was 0.00453 s⁻¹.

Molecule B13 came in with a α-rat koff of 0.00359 s⁻¹.

Consider B14, for which the α-rat koff amounted to 0.00752 s⁻¹.

B15 displayed a α-rat koff of 0.00296 s⁻¹.

B16 gave a α-rat koff of 0.00922 s⁻¹.

As for B17, the α-rat koff came out at 0.00399 s⁻¹.

Regarding B18, the α-rat koff stood at 0.00479 s⁻¹.
